Reference: publication PMC3334289 (Fems Microbiology Letters, 2012)

Biological target: the molecule itself
Test: sedimentation of polymers

B1: His6-tagged MreB (MreB-HIS) (natural protein, E. coli, UniProt P0A9X4 1-347, looked up)
chain: MLKKFRGMFSNDLSIDLGTANTLIYVKGQGIVLNEPSVVAIRQDRAGSPKSVAAVGHDAKQMLGRTPGNIAAIRPMKDGVIADFFVTEKMLQHFIKQVHSNSFMRPSPRVLVCVPVGATQVERRAIRESAQGAGAREVFLIEEPMAAAIGAGLPVSEATGSMVVDIGGGTTEVAVISLNGVVYSSSVRIGGDRFDEAIINYVRRNYGSLIGEATAERIKHEIGSAYPGDEVREIEVRGRNLAEGVPRGFTLNSNEILEALQEPLTGIVSAVMVALEQCPPELASDISERGMVLTGGGALLRNLDRLLMEETGIPVVVAEDPLTCVARGGGKALEMIDMHGGDLFSEE
  binding result: binds
